Consider 18 sequences from a protein production outcome set (Wang et al. 2014).

This data set is described as follows: label from the status in PepcDB records.
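Further: failed if final PepcDB status was selected cloned or expressed and not failed if soluble or beyond.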

For “MNIQLNGQCRCIPETSSIAGLLAEEGFSERRVAVEVNGEIVPRTLHVNYVLREGDRVEIVHALGGG”, the protein production result is reported as “failed”.
In the case of “MNIQRETSGHIAAIVTILIWGTTFISTKVLLADFSPMEILFYRFLMGFIALILVRPNMIPFRNWRQELLFAGAGLFGVTLYFLLENIALTYTYASNVGMIVSIIPMITAVLAHFLLEGEKLRLTFLIGFISALIGLLLITFNGNVVLRLNPLGDIMAAGAALVFGGYSIFMKKLSAYEYHIIELTQRVFLYGLLFMVPALFLFDFHFDLSRFSSASNILNMLFLGIGASALCFATWNYSVGVLGAVKSSAYIYMVPVITIAASVLILHENMTWIALLGGALTLLGLYISELKPKAKLLENGCKMDA”, the protein production result is listed as “failed”.
Then “MNIRPAATLVLTRDTDNGIEVLLLQRTWEAVFLPGYYVFPGGAVNAQEPEGRAHVVGVEDADISQTMSLDEGGADYMLAAVRECFEEAGILLAQDASGQLIGADHGVHSERMALFQEEISLAQLCAKHGLTVPLDRLAYLSHWVTPPGPPRRFDTRFFVAVAPEGQVASHDGTETIDHVWIAPAQALEEHRAGARLLGLPTIRTLRVLSEFGTTGEMMRYAHANPPEAFPDQPWPAVRKGKPVMLEPNAPAYDEAVKLDPEGEGSTRAEIVPGEPVEVAAGVIRLTAPNPGMMTGPGTNTYILGHERFTVLDPGPANEAHIERILELTGGVVDQVVVTHTHMDHSPAVAQLKARTGCRVFGWPAPEGAGQDQGFTPDDQPGHEDLIVTEAGILKVLHTPGHASNHLCYLLLDQELLFSGDHIMQGSTVVINPPDGDMKAYIDSMYDLLAEPVRFIAPAHGFLMGQPAAVMDYLITHRLSREHKVWRALEALAPVSLKDLTARAYDDVPAAIHGLAARSALAHLLKLEAEHRAFADDGLWQVVAPD”, with “failed”; and “MNITVNDRECSAQVGDRLLDIARANHSHIGYFCGGNAICQTCYVRVLEGAELLSPMSDAEKAMLSDKLIKEGTRMACQTLIEKPGKITVLSEVEAAKRLTLENPLEHHHHHH”, with “not failed”.
With “MNIVVQSVYDNTQEFEIIKKWRENYIGINPANGNDFEYWESIREDCSYSFYFYYEDQLVGGVRLTPLGHGITMGERQLDLLRFISVPLETLEVNRLVIEERARGKKIMYESLQYCFHWDSRNTTHSELIALCLPHMVPLYRQVGATMIHDNLQSKEMPEKEYSLISINLKGL”, the protein production entry is “failed”.
Then “MNIYDQLQAVEDRYEELGELLSDPDVVSDTKRFMELSREEANSRETVAVYREYKQVVQNIADAQEMIKDASGDPELEEMAKEELKNSKVAKEEYEEKLRFLLLPKDPNDDKNIILEIRGAAGGDEAALFAGDLLNMYQKYAENQGWKFEVMEASANGVGGLKEVVAMVSGQSVYSKLKYESGAHRVQRVPVTESQGRVHTSTATVLVMPEVEEVEYEIDPKDLRVDIYHASGAGGQNVNKVATAVRIIHLPTNIKVEMQEERTQQKNRDKAMKIIRARVADHFAQIAQDEQDAERKSTVGTGDRSERIRTYNFPQNRVTDHRIGLTLQKLDSILSGKLDEVIDALILYDQTQKLEELNK”, with “not failed”; and “MNKEVDLSVSCLGKVKELKYDVIILPWGATEPHNLHLPYLTDCILPHDIAVEAAELALSRSGVRCMVMPPVPFGAHNPGQRELPFCIHTRYATQQAILEDIVSSLHVQGFRKLLILSGHGGNNFKGMIRDLAFEYPDFLIAAANWFEVVSPKGYFEAEIDDHAGESETSVMMHYHPELVNLAEAGDGESKPFAIASLNEKVAWVPRHWDKATVDSGVGNPKKATAEKGERYVKPIVEKLAGLFEEMAQHDLYE”, with “not failed”.
For the sequence “MNKGNTLDSIPTDLILEIFSRLSAKSVGRLRCLSKLWRKGEWFFFSSLQPQNLYEKPFLVVAADFHMKFSEDMSHDIYSYASGLIYFPKMLIENEKSGAIRVICNPITGQYAILPKLITLQAARSFLGFDPIDNQFKVLLVNNDIVNNDMDILTLGIGELMSEKLKFIEAKCFFALDDVQLINYKGKLGGISWNNHEVAPVELSMWVLEDVEKQEWSKNVYILPKNVVPNNWLHAAGVTVEGDIVFSEAVVSNPFDVFYFNPEKNTLQHVETHCNHEVFDDENLVNIFVDHVEDLKFDVMKPTYAATSIRPTEQKHKPTSTETSMSRKDHQVRTIDQPQQDRCTFESINNKFDVMCLLDDD”, the protein production entry is “not failed”.
As to “MNKKSLLAAVLFAAVMPVSFAQNANVKGAESLSGGSKPNFPEARTLIGEAMKNPETMNDAKTWFVAGQVEERLFTSENLKQTVNQEPDRAMMNDALLRILPFYLKADQLDNMPDQKGKVKPKFTKKIMESLKGNHLYYINAGGYYMEKKDYKKALEAFDQFMQIKELPMFAAVPEISAQDSNSMMVGFFSAVCAYQANDLDRTLEICNKIKDVPYRQNDVYQLIATVYQDKKDTEGYIRMLEEGVQKFPKEAYYLLNLINKYIETGRTEEAISSLERAIADDPQNVQLYDVMAKLYENTQDYDKAEEWLKKGLALDPDNASVCYDLGRVYYNRAADLKGADQVNAETEAKAKEYLQKALPLLEKAYSINPDESWYVLRNVYYNLKMNDKYKELTERHEGK”, the protein production result is on record as “failed”.
Turning to “MNKLEERSQHRKSRFRFLVISTFWRVLLLLKNDAEPLFHLGNIHYAYGHKASAMNYWKEAVSKNREHEKAWHNLVQCAVIQEEWEQAAEGLTILCRNHPTRFEYMSLYTHALKKLGKKEELEEWYLSHINGPHHEWAIEGLGMLYIRTRREIDAFKLLSPFVRKFPNRPVGLKILGISSIRTNQYEAGLTFLEKSLELKEDKEVKSLVDRVKRLKKVRGGNR”, the protein production entry is recorded as “failed”.
The entry for “MNKLSEKNTTRLASLDILRGFDLFLLVFFQPVFAALVRQLNLPFLNDILYQFDHEVWEGFRFWDLVMPLFLFMTGASMPFSLSKYVGMSGSYWLVYRRILRRVFLLFIFGMIVQGNLLGLDSSHIYLYSNTLQSIAVGYLIAAVIQLHFSFRWQIGITLLLLFIYWIPMTFLGDFTPAGNFAEQVDRCVLGRFRDGVFWNEDGTWSFSPYYNYTWIWSSLTFGVTVMLGAFAGKIMKEGKANRKKVVQTLSVIGVLLVGLAMLWSLQMPIIKRLWTGSMTLLSGGYCFLLMALFYYWIDYKGHSRGLNWLKVYGMNSITAYLLGEVVNFRCIADSVSYGLKQYIGDYYPVWLTFANYLILFFLLRMMYKRGLFLKV” is “failed”.
For “MNKLSIIITYFNNEDYISECIHSLKSQRNQDFDIIVVDDGSTDRSTEILQEALKSYDKDVHFIQLQENTGHAHARNVALEQAHGQYVLFLDADDQLASYAVDYYLQHVNGLDTLIAPIHKFRSQRPQYVDKDKVRLQYASHQKSPNAILRKESACNILFKNAIIKAHQIQFNESLDIYADTSFVLEYLKYAERFVRITNFPFYYRGEVYDPFYGNTLSDQDFTNKFEDHVNSFFDAMQRTNDKRIKNFLIQRMKNEIKSGFDPALRDIKSRYVSLEDALIKIVKALKWNILKDGKVLYNLEILFLSMDDVENAKYVNDLRNKTRLVKNIVLNSKMKERSKYQLSDNEDLVDPNTIVFEAFGGKNYSDSPKYIYEYMQKHYPHLNYIWVFSKPENNNIPGNATKVKKGSQAYYDAYAKAKYWVTNARLPLYLNKKENQMYIQTWHGTPLKRLANDMKVVRMPGTTTANYKKNFYAEASRWDRLVSPNRYSSDIFKSAFWMDEDRIWEIGYPRNDVLVNRQNDTEYIEQIKRDLNLPADKKVIMYAPTWRDDEFVKKGQYLFDLKINLANLQKEIGDEYVILLRMHYLIANALDLHGYDDFAIDVSNYNDISELYLISDALVTDYSSVMFDFGILKRPQFFFAYDIEKYDKGLRGFYMDYMNDLPGEIITDEFKLAEELKQIDQHKVKYQDKIESFYNDFCSIENGKASQYIGDYIYKDIEKKS”, the protein production entry is given as “failed”.
For the sequence “MNKMLYGWLLAACCGLPPAFAGDSVDVLAQPALHGPQALRAVLQDVARADARLVAVGERGVVLLSDDNGATWRQATAVPVGVSLTAVQFIDARNGWAVGHAGVVLHSQDGGEHWSVQLDGKRAAALEVQAAEAAADERRLAAAQRLLADGADKPLLALNFTDARNGLVVGAYGVAMRTDDGGRSWQSEIGRLPNGRGLHLYALARQGNQVYIAGEQGLLLRSRDGGEHYEALHGPYDGSYFAATVLPDGRLLLGGLRGSLFASDDGGDSFQALANPTPASINGLRVAGGQLLLANQAGMLLRSGLGAFAAQPVAVSDGLPLTAATTAADGSIVAVGMAGARRLEPSSLSTTTD”, the protein production result is recorded as “failed”.
For the sequence “MNKPATIDFATATAIQIPAATAQAEALHDLVPGEARDSLLAVHDVLRRELPQGRLAIYEAGGGSCSVLPPELLSRSQVTVVDIDEDQVRNNTYADEAIRGDVQTYRFGGETFDLVICYNVIEHLPNVDAALLNFRDALKRGGMILIGAPNPRSLSGVVTKYSPHWFHVWFYRHIRGIRDAGLPGEPPFPTFFHPLVTLPRLEAFAAANGLDMTYRREVESPRYPEMRRRKPLFAALVDAGAAMLNAVLPRGTDVRRGDYHVILRKS”, the protein production result was “failed”.
Then “MNKPYFIAFLLSLALWTVIPSVFAGDVVLKVFEGKPRINSPHITGNYPSTPFIFYIPTSGQRPMQWSAEKLPEGLELDSKTGIISGVMTSKGDYTVTLKAENALGVSVKQLVIRIGDELLLTPPMGWNSWNTFGQHLTEELVLQTADAMITNGMRDLGYSYINIDDFWQLPERGADGHLQIDKTKFPRGIKYVADYLHERGFKLGIYSDAAEKTCGGVCGSYGYEETDAKDFASWGVDLLKYDYCNAPVDRVEAMERYAKMGRALRATNRSIVYSVCEWGQREPWKWAKQVGGHLWRVSGDIGDIWYRDGNRVGGLHGILNILEINAPLSEYAGPSGWNDPDMLVVGIDGKSMSIGYESEGCTQEQYKSHFSLWCMMASPLLSGNDVRNMNDSTLKILLDPDLIAINQDVLGRQAERSIRSDHYDIWVKPLADGCKAVACFNRASSPQTVILNENTIADLSFEQIYCLDSHLTKSGSDSKELIVKLAPYQCKVYILGKTDLEHHHHHH”, with “failed”; and “MNKRNWTAYYNSTKQNTLPRKSLLKAIANFDKEKINLSKSAIDLGCGAGIDVMELLRCGWSVIAIDSQLSAIDSLLSSAQELTCANKLKTIISSFEALDSLPKVNLINASFSLPFLKPVYFYKFWSVILKGLKPGGRFSGSFFGFNDFWNTRTDMTFLNREMICHLFSQFKIEYFQEEEKDEMDALGYYKHWHKFFIVAKKIALEHHHHHH”, with “failed”.
Turning to “MNKRPARPTRSRRRISVAPATRQLRNARQMMADDIAVARAVERGELETEEHPTHGATNAEKAAESGLQPQPSDHEKAEVATSKHGLPKLTIVLLTVAAAWLGLSFLHELSSVVAPLFFGLNLLITAYPIHTWLVKHKCPRWISATTAGTAVIVVLAAGVVGMVWSVAAMINQLQSYIPQMEKIYTQLLHWSTQLGYSQDVIADKLKKIDPQQVMSVVTSVASDTTSVVTMIIVILTGMIFMVMDTPQMHDRLRMAGSRKPDVVLALESFASGIRKYWLVTTVFGLIVALFDWAALLIIGVPLAGVWALFSFLTNYIPNIGFIIGVIPPALLALFKDGWVAAVAVVVSYSVLNFVIQSIIQPKFAGDAVGLTPTMSFVSLLLWGWVFGALGTLIALPCSLLVKATLIDHDPGARWVNALISSRPTEGLEDNPDE”, the protein production entry is listed as “failed”.
For “MNKRPASGTGHSVLRRSTRRQLLGAAAGATAALCGCLDDNGTDRTEPLDVSIGDVATYRYGPQRRGVADTTVPETAPDERWRLNTDWPVRAAPAVVGGVVYHCGNGLAAVDAVDGERLWRVDTDGPSETPPAVADGVVFAGTHRGRLHAINSDGTEHWTASGNGRIDAAPVVVDGRVYTASRATDGEVYAFEAGGREWTHEAVYRVNSPPAVADGLVFVGGWEGAVYGIDADSGERQWRTATDGPVLSSPAVADGRVFAGGNDGVVRALDVADGDERWQVETAATPTAPAVADGSLYVGDADGRLRRLDAATGEEGWQVTVASGIGVPPTVVEGTVVVGTTDGGVVAVDAADGTERWRVDTGERIRSQPVLAAGRVFVGSGRRLLALGK”, the protein production result was “failed”.
